Measurements from patent US20260049134A1 (UNIVERSITY OF FLORIDA RESEARCH FOUNDATION, published 2026).

Columns and labels:
[1] = target: T1, CADM1, endogenous in H929 multiple myeloma cells (human, UniProt Q9BY67 45-442); experiment: flow cytometry, H929 + vehicle; None 2.74
T1 construct: Native protein on H929 cells (flow cytometry, siRNA knockdown) and in H929 lysates (IP/MS); RPMI-8226 cells were used for sorting with HW-97; also called IGSF4A
T1 sequence: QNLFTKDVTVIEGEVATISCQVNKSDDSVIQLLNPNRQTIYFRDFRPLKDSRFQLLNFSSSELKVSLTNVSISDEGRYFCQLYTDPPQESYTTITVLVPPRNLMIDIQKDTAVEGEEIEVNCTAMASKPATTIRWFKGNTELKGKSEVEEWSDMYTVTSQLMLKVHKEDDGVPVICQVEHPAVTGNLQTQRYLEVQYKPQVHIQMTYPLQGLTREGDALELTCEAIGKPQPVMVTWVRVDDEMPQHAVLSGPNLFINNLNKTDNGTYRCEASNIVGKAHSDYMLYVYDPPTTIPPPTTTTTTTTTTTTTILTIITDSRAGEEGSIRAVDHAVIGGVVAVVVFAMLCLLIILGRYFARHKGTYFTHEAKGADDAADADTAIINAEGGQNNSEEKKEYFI

[2] = target: T1, CADM1, endogenous in H929 multiple …; experiment: flow cytometry, IgG1 on H929 cells
Method: (§1) Staining protocol. Cells were harvested (5×10⁴ cells per sample), washed once with phosphate-buffered saline (PBS) at RT, and a second time with ice-cold FACS buffer (PBS, 0.5% BSA, 2 mM EDTA, 0.1% NaN₃). Cells were stained in 50 μL of primary antibody for 30 min on ice, washed twice with 100 μL FACS buffer, stained with 50 μL of diluted secondary antibody, washed two more times in FACS, and then resuspended in 50 μL FACS buffer. Samples were acquired on an Accuri C6 Plus or a BD FACSCanto II flow cytometer (both from BD Biosciences). Data were analyzed using FlowJo version 10 software. Primary antibodies: Fab (10 μg/mL), IgG1 (0.1 to 50 μg/mL), or 25 μL polyclonal Fabs from periplasmic extracts. Polyclonal Fabs were produced by diluting bacterial stocks by a factor of 100 in autoinduction media and incubating overnight to induce expression as previously described. […] Viability stains: DAPI (Cell Signaling Technology) or SYTOX AADvanced Dead Cell Stain (Thermo Fisher Scientific). Labeling: The panel of chimeric rabbit/human IgG1s was labeled using the Alexa Fluor 647 Labeling Kit (Thermo Fisher Scientific, #A20173) to facilitate single-step staining. Competition: Unlabeled IgG1s were added at saturating concentrations of 60 μg/mL to block the target receptors, incubating on ice for 30 min, followed by the addition of an equal volume of the Alexa Fluor 647 labeled antibody at 2 μg/mL, and the mixture was incubated on ice for another 30 min.

[3] = target: T2, ICAM1, endogenous in H929 multiple myeloma cells (human, UniProt P05362 28-532); experiment: IP from H929 cell lysate, LC-MS/MS, heatmap
T2 construct: Native protein on H929 cells (flow cytometry, siRNA knockdown) and in H929 lysates (IP/MS); also called CD54
Method: (§2) Immunoprecipitation. […] After 30 min of rocking at 4° C., and lysates were centrifuged at 18,400×g for 20 min at 4° C. Subsequently, 1-mL aliquots of the supernatants were pre-cleared twice with Protein G agarose (Thermo Fisher Scientific) by adding 50 μL of 50% resin slurry and incubating 30 min with end-over-end tumbling at 4° C., followed by centrifugation at 16,000×g for 5 min and pooling of the pre-cleared cell lysate aliquots. Representative mAbs from each cluster were immobilized on Protein G agarose at a ratio of 25 μg IgG1 per 30 μL of 50% slurry, diluted to 500 μL with Dulbecco's PBS (DPBS) and incubated for 1 h at 4° C. with tumbling, followed by centrifugation at 5,000×g for 30 s and 2 washes with lysis buffer. After the last wash, the ˜15 μL of IgG1-coated resin was blocked with 10 μL of 10% BSA (MilliporeSigma). Next, 1 mL of the pooled pre-cleared cell lysate was added to the IgG1-coated resin and incubated for 3 h at 4° C. with tumbling. The immune complexes were pelleted by centrifugation at 2,500×g at 4° C. for 30 s, and gently resuspended to wash for 3 min in 1 mL of lysis buffer, which was repeated once with lysis buffer and twice with an identical wash buffer lacking Triton X-100. Finally, the immune complexes were eluted from the resin with three batch-wise steps using 30 μL of elution buffer (6 or 8 M urea (MilliporeSigma), 20 mM Tris-HCl pH 7.5, and 100 mM NaCl) and incubating 15 min at RT with 450 rpm orbital agitation. Finally, 16 μL of the eluate (˜20%) was analyzed on a reducing SDS-PAGE gel stained with SYPRO Ruby dye (Bio-Rad Laboratories), while the rest was stored at −80° C. prior to LC-MS/MS analysis.
(§3) Protein elutions in 6 or 8 M urea were reduced with 15 mM dithiothreitol at 56° C. for 30 min followed by alkylation with 30 mM iodoacetamide in the dark at RT. The elutions were then diluted to 1 M urea with 50 mM ammonium bicarbonate pH 7.8 and digested overnight at 37° C. following the addition of 4 μg trypsin (Promega).

[4] = target: T3, PTPRG, endogenous in H929 multiple myeloma cells (human, UniProt P23470 20-1445); experiment: flow cytometry, H929 + CADM1 siRNA; None 449
T3 construct: Native protein on H929 cells (flow cytometry, siRNA knockdown) and in H929 lysates (IP/MS); also called phosphatase receptor type γ

[5] = target: T3, PTPRG, endogenous in H929 multiple …; experiment: flow cytometry, H929 + CADM1 siRNA; None 0.89
[6] = target: T3, PTPRG, endogenous in H929 multiple …; experiment: flow cytometry, H929 + PTPRG siRNA (target knocked down); None 2.13
Method: Recombinant purified ECDs (50-150 ng) of each putative target protein were coated, incubated with 150 ng of the indicated primary antibody, and binding was detected using a peroxidase-conjugated anti-human Fab secondary antibody. Heatmap represents averages of technical triplicates. (8B) Target validation via siRNA knockdown. H929 cells were transfected with siRNA pools targeting the putative antibody targets ICAM1, CADM1, and PTPRG. Cells were then subjected to cognate IgG binding analysis via flow cytometry. (NT, non-targeting siRNA).
as §1

[7] = target: T3, PTPRG, endogenous in H929 multiple …; experiment: IP from H929 cell lysate, LC-MS/MS, heatmap
Method: as §2, §3

T2 sequence (P05362 28-532 limits assumed): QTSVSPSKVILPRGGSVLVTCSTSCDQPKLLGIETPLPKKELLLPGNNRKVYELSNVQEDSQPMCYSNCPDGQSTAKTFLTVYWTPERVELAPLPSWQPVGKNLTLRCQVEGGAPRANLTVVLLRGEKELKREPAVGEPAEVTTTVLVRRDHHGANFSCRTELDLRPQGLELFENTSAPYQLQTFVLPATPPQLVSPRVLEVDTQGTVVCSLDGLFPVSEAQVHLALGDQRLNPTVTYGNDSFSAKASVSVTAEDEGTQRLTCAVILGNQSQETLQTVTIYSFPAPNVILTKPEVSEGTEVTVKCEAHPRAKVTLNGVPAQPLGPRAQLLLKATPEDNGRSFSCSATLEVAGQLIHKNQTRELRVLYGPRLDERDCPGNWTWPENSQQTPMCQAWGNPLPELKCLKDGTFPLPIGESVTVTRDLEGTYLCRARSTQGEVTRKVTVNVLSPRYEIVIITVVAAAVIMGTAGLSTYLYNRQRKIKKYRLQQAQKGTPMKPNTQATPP
T3 sequence (P23470 20-1445 limits assumed): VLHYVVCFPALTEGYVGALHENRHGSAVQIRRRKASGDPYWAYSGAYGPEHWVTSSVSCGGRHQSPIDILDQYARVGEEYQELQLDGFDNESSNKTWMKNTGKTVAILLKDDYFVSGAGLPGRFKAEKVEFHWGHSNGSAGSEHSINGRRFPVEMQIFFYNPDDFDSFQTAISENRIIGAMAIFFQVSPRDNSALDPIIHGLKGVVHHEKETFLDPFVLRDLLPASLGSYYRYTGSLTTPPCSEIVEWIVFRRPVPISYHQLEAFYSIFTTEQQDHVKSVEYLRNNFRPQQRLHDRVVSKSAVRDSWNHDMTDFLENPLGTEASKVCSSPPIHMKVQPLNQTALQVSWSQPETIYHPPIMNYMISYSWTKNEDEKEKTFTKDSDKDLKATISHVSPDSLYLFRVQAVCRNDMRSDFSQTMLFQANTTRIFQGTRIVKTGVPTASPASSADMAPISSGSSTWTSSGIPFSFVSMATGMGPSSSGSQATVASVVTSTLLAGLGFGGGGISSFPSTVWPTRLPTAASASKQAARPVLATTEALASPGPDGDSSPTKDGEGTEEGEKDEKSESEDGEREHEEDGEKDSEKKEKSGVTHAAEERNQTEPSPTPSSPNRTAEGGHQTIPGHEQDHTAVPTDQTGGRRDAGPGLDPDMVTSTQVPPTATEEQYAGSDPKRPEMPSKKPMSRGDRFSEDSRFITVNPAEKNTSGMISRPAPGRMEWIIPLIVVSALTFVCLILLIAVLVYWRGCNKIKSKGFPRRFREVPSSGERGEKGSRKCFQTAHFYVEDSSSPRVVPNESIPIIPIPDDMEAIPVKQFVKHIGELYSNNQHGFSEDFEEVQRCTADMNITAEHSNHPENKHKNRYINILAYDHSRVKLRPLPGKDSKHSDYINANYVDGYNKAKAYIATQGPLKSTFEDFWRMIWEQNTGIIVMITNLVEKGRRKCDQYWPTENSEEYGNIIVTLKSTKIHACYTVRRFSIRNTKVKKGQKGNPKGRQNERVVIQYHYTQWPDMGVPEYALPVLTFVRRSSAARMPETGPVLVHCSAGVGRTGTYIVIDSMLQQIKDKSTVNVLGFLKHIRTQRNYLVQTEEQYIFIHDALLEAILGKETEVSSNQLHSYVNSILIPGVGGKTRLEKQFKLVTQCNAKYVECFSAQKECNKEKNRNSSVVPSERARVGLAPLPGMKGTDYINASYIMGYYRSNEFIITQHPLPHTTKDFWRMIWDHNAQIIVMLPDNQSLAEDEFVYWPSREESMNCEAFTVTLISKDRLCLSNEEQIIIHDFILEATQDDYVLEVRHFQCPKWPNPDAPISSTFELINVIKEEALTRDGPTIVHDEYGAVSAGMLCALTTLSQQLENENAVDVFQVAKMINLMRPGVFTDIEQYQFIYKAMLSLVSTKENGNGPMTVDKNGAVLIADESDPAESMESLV

| binding result [3] | mAb binding (MFI) [4] | Cells stained (%) [5] [%] | Cells stained (%) [6] [%] | Binder | further results |
| --- | --- | --- | --- | --- | --- |
|  | 9210 | 97.3 | 0.55 | HW-42 chimeric rabbit-human IgG1 LA/LA/PG (antibody, V domains shown, Fc-silenced (L234A/L235A/P329G) IgG1, lambda; Alexa Fluor 647-labeled in single-step flow cytometry; Cluster C-1) VH: QSVKESEGGLFKPADTLTLTCTVSGFSLSSNEISWVRQAPGEGLEYIGIIDTGGRAYYAVWARSRSTITRNTNLNTVTLKMTSLTAADTATYFCARGGVDTEWYAFSSWGPGTLVTVPS VL: SFVLTQPASVQVNLGQTVSLTCTADTLSRRYASWYQQKPGQAPVLLIFRDTSRPSGVPDRFSGSSSGDTATLTISGAQAGDEADYYCATSDGSGSNYQYVFGGGTQLTVTG |  |
|  | 13800 | 98.7 | 0.87 | HW-70 chimeric rabbit-human IgG1 LA/LA/PG (antibody, V domains shown, Fc-silenced (L234A/L235A/P329G) IgG1, lambda; Alexa Fluor 647-labeled in single-step flow cytometry; Cluster C-1) VH: QSLEESGGRLVTPGTPLTLTCTVSGFSLSSNAMSWVRQAPGKGLEWIGTIDGYGYTYYASWAKGRFTVSKTSTTVDLKITSPTTEDTATYFCAREIYLGSNFWGPGTLVTISS VL: SFVLTQPASVQVNLGQTVSLTCTADTLSRRYASWYQQKPGQAPVLLIYRDTSRPSGVPDRFSGSSSGNTATLTISGAQAGDEADYYCATADGSGSSYQFVFGGGTQLTVTG |  |
| no binding | 17500 | 99.3 | 1.2 | HW-1 chimeric rabbit-human IgG1 LA/LA/PG (antibody, V domains shown, Fc-silenced (L234A/L235A/P329G) IgG1, lambda; Alexa Fluor 647-labeled in single-step flow cytometry; Prototype of cluster C-1) VH: QSLEESGGGLFKPTDTLTLTCTASGFSLGSSYAISWVRQAPGKELEWIGTIDSGRAYYARWAKSRSTITRNTNENTVTLKMTSLTAADTATYFCARDLIPTYSQDIWGPGTLVTISS VL: SFVLTQPASVQVNLGQTVSLTCTADTLSRRYASWYQQKPGQAPVLLIYRDTSRPSGVPDRFSGSSSGNTATLTISGAQAGDEADYYCATSDGSGNSYQYVFGGGTQLTVTS |  |
| no binding |  |  |  | HW-45 chimeric rabbit-human IgG1 LA/LA/PG (antibody, V domains shown, Fc-silenced (L234A/L235A/P329G) IgG1, lambda; Alexa Fluor 647-labeled in single-step flow cytometry; Prototype of cluster C-45) VH: QKQLVESGGRLVTPGTPLTLTCTVSGFSLSSYAMGWFRQAPGKGLEWIGIINSYGSTYYASWAKGRFTISKTSTTVDLKITSPTTEDTATYFCGRRIGSARFDPWGPGTLVTVSS VL: SFVLTQPASVQVNLGQTVSLTCTADTLSRSYASWYQQKPGQAPVLLIYRDTRRPSGVPDRFSGSSSGNTATLTISGAQAGDEADYYCATSDGSGSSYRLVFGGGTQLTVTG | binding result [7]: no binding |

More lines, now with the values behind:

| Binder | binding result [3] | mAb binding (MFI) [4] | Cells stained (%) [5] [%] | Cells stained (%) [6] [%] | further results |
| --- | --- | --- | --- | --- | --- |
| TH9-0022 (antibody, human IgG1, kappa, L234A L235A, V domains shown, also called TH9-022; negative control) VH: QSLEESGGRLVTPGTPLTLTCTVSGFSLSSYAMNWVRQAPGKGLEWIGIINSYGSTYYASWAKGRFTISKTSTTVDLKITSPTTEDTATYFCARVTYDSYGYGYAPYGMDLWGPGTLVTVSS VL: LVMTQTPSSTSNAVGGTVTIKCQASQSIGNVLAWYQQKPGQPPKLLIYAASTLASGVPSRVGGSRSGTEYTLTISGVQREDAATYYCLGSDSDSDIAFGGGTELEILR |  |  |  |  | Cells stained (%) [1]: 2.62% |
| TH9-0022 (antibody, human IgG1, kappa, L234A L235A, V domains shown, also called TH9-022; negative control IgG1) VH: QSLEESGGRLVTPGTPLTLTCTVSGFSLSSYAMNWVRQAPGKGLEWIGIINSYGSTYYASWAKGRFTISKTSTTVDLKITSPTTEDTATYFCARVTYDSYGYGYAPYGMDLWGPGTLVTVSS VL: LVMTQTPSSTSNAVGGTVTIKCQASQSIGNVLAWYQQKPGQPPKLLIYAASTLASGVPSRVGGSRSGTEYTLTISGVQREDAATYYCLGSDSDSDIAFGGGTELEILR | no binding |  |  |  | antibody-bound positive cells (%) [2]: 2.7% |
| HW-113 chimeric rabbit-human IgG1 LA/LA/PG (antibody, V domains shown, Fc-silenced (L234A/L235A/P329G) IgG1, lambda; Alexa Fluor 647-labeled in single-step flow cytometry) VH: QKQLVESGGGLVQPGGSLTLTCTVSGFSLNKYYMGWFRQAPGKGLEWIGVISRSGDTYYSSWAKGRFTISKASTTVDLRITSPTTEDTATYFCARDASSPGFHGDRLDLWGQGTLVTVSS VL: SFVLTQPASVQVNLGQTVSLTCTADTLSRSYASWYQQKPGQAPVLLIYRDTSRPSGVPDRFSGSSSGNTATLTISGAQAGDEADYYCATSDGIGSNYLWVFGGGTQLTVTG |  |  |  |  | binding result [7]: no binding |
| HW-97 chimeric rabbit-human IgG1 LA/LA/PG (antibody, V domains shown, Fc-silenced (L234A/L235A/P329G) IgG1, lambda; Alexa Fluor 647-labeled in single-step flow cytometry; Prototype of cluster C-97) VH: QKQLVESGGRLVTPGTPLTLTCTVTGIDLSSHGMSWVRQAPGKGLEWIGVIYPSGSTWYASWARGRFTISKTSTTVDLKMTSLTTEDTATHFCARGDVGGADNNIWGPGTLVTVSS VL: SFVLTQPASVQVDLGQTVSLTCTAETLSRSYASWYQQKPGQAPVLLIYRDTSRPSGVPDRFSGSSSGNTATLTISGAQAGDEADYYCATSDGSGSSYQYVFGGGTQLTVTG |  |  |  |  | Cells stained (%) [1]: 98.4%; antibody-bound positive cells (%) [2]: 98.6% |
| HW-17 chimeric rabbit-human IgG1 LA/LA/PG (antibody, V domains shown, Fc-silenced (L234A/L235A/P329G) IgG1, lambda; Alexa Fluor 647-labeled in single-step flow cytometry; Cluster C-1) VH: QSLGESRGRLVTPDETLTLTCTVSGIDLSSNAMSWVRQAPGEGLEWIGTINTGGRAYYASWAKGRFTISRTSTTVDLKMTSLTTEDTATYFCARERYSDGRAYDIWGPGTLVTISS VL: SFVLTQPASVQVNLGQTVSLTCTADTLSRRYASWYQQKPGQAPVLLIYTDSNRPSGIPDRFSGSSSGNTATLTISGAQAGDEADYYCATDDGSGSIYQYVFGGGTQLTVTG |  | 21000 | 99.3 | 1.25 |  |
| HW-25 chimeric rabbit-human IgG1 LA/LA/PG (antibody, V domains shown, Fc-silenced (L234A/L235A/P329G) IgG1, lambda; Alexa Fluor 647-labeled in single-step flow cytometry; Cluster C-1) VH: QSLEESGGRLVTPGTPLTLTCTVSGFSLSSYAMGWVRQAPGKGLEWIGIIDSRGSTYYATWAKGRFTISKTSTTVDLKITSPTTEDTATYFCAREDSYYYDSFNLWGPGTLVTVSS VL: SFVLTQPASVQVNLGQTVSLTCTADTLSRRYASWYQQKPGQAPVLLIYRDTSRPSGVPDRFSGSSSGNTATLTISGAQAGDEADYYCATSDGSGSSYQCVFGGGTQLTVTG |  | 8720 | 97.7 | 0.87 |  |
